Experimental findings from patent US6004793 are described below.

This data set deals with AvaI restriction endonuclease (recombinant) V1M (start codon GTG changed to ATG) (Anabaena variabilis). Briefly: cleavage_in_vitro. The following applies: extract of ER2504 [pLG-BsoBIM, pLysS, pAII17-AvaIR]; lambda DNA digestion; recognition site not given.

With bacteriophage lambda DNA, the activity (units/g wet cells) was determined as 6.4e+06.
